Experimental data published in US11786605B2, “Site specific antibody-drug conjugates with peptide-containing linkers” (Mersana Therapeutics, Inc., priority 2020, dated 2023).

What was measured:
human FcRn = biological target: T1, human FcRn (Homo sapiens, UniProt P55899); assay: Binding kinetics to FcRn by Biolayer Interferometry; settings: BLI, 25° C., pH 6.0
T1 construct: purchased Immunitrack
Protocol: (§1) The binding kinetics of the XMT-1535, Conjugate 7, and Conjugate 11 to Fc receptors (FcRn, FcγRI, FcγRIIA (H167), and FcγRIIIA (V176) were determined by Biolayer Interferometry (BLI; ForteBio Octet QKe) at 25° C. To test binding to Fcγ receptors, XMT-1535, Conjugate 7, and Conjugate 11 were diluted to 1 μg/mL in kinetics buffer (1×) and captured on anti-human Fab-CH1 (FAB2G) biosensors for 10 minutes. All dilutions and baseline measurements were done in kinetics buffer (1×). Baseline measurements were performed at […] before and after each capture step. Association measurements to the various Fc receptors were performed at 7 concentrations (from 1 μM to 100 nM, 2-fold serial dilutions) for 5 minutes. Dissociation was performed for 15 minutes. Binding constants were calculated with the global fit averages of the traces using a 1:1 model. Binding constants for XMT-1535, Conjugate 7, and Conjugate 11 to Fc receptors were determined using standard Octet procedures (ForteBio). Kinetic parameters were calculated using Octet software (ForteBio).
To test binding to FcRn receptor, association of XMT-1535, Conjugate 7, and Conjugate 11 to Fab-CH1 (FAB2G) biosensors was performed as described above. […] Association measurements to FcRn protein (Immunitrack) was measured at 7 concentrations (from 1 μM to 100 nM, 2-fold serial dilutions) for 5 minutes. […]

FcγRIIA (H167) = biological target: T2, FcγRIIA (H167) (Homo sapiens, UniProt P12318); assay: Binding kinetics to FcγRIIA by Biolayer Interferometry; settings: FcγRIIA H167, BLI, 25° C.
T2 sequence (P12318 34-217 limits assumed): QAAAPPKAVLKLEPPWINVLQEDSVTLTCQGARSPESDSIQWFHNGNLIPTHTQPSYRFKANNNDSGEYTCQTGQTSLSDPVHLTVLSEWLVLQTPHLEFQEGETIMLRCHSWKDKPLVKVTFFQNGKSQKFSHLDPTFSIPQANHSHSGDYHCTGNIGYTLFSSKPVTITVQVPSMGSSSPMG
Protocol: as §1
(§2) Tables IV-VII summarize the Kd (equilibrium dissociation constant), kon (rate of association), and koff (rate of dissociation) for human FcRn (Table IV), FcγRI (Table V), FcγRIIA H167 (Table VI), and FcγRIIIA […] (Table VII) for each test article.

FcγRIIIA (V176) = assay: Binding kinetics to FcγRIIIA by Biolayer Interferometry; parameters: species or system human; settings: BLI, 25° C.
Protocol: as §1, §2

NaPi2b-derived peptide = biological target: T3, NaPi2b-derived peptide (Homo sapiens, UniProt O95436); assay: Binding kinetics to NaPi2b-derived peptide by Biolayer Interferometry; settings: BLI, 25° C.
T3 construct: Genscript); purchased Genscript
T3 sequence (O95436 311-340 limits assumed): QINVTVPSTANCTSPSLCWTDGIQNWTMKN
Protocol: The binding kinetics of XMT-1535, Conjugate 7, and Conjugate 11 to immobilized NaPi2b-derived peptide antigen were determined by Biolayer Interferometry (BLI; Octet; ForteBio). Binding constants for XMT-1535, Conjugate 7, and Conjugate 11 were determined using standard Octet procedures (ForteBio). Biotinylated NaPi2b-derived peptide ([…]-biotin; Genscript) was immobilized to streptavidin octet sensors in kinetics buffer (10×). Sensors were then blocked in kinetics buffer (10×) with biocytin (50 μg/mL). Increasing concentrations of XMT-1535, Conjugate 7, or Conjugate 11 were then associated with immobilized peptide in kinetics buffer (10×).

FcγRI = FcγRI (Homo sapiens, UniProt P12314); assay: Binding kinetics to FcγRI by Biolayer Interferometry; settings: BLI, 25° C.
Chain of FcγRI (P12314 16-374): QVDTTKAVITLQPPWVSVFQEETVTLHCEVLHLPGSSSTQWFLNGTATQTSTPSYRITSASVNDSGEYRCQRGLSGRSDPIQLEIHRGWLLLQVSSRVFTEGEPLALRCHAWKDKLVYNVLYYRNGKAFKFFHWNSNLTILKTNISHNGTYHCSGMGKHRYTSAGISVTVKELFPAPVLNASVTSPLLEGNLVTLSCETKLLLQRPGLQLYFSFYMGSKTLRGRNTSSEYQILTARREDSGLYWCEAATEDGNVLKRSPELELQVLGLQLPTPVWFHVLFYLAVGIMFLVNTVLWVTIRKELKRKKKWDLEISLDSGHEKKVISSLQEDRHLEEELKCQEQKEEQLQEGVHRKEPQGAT
Protocol: as §1, §2

T1 sequence (P55899 24-297 limits assumed): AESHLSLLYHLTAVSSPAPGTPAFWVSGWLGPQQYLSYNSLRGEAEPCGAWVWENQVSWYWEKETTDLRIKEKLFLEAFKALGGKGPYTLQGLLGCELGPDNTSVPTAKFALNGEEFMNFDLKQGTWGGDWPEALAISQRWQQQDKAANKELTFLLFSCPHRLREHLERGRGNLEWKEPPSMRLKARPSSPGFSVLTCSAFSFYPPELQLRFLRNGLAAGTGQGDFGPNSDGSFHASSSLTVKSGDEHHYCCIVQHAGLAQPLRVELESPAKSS
T1 sequence (P61769 21-119 partner): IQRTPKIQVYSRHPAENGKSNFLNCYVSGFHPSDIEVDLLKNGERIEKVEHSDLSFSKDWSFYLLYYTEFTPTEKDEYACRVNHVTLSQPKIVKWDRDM

XMT-1535: anti-NaPi2b antibody
koff Mean (human FcRn): 0.000448 s⁻¹
kon Mean (human FcRn): 160000 M⁻¹ s⁻¹
koff Mean (FcγRIIA (H167)): 0.308 s⁻¹
kon Mean (FcγRIIA (H167)): 175000 M⁻¹ s⁻¹
koff Mean (FcγRIIIA (V176)): 0.146 s⁻¹
kon Mean (FcγRIIIA (V176)): 216000 M⁻¹ s⁻¹
koff, Mean Napi2b binding (NaPi2b-derived peptide): 1.27e-05 s⁻¹
kon, Mean Napi2b binding (NaPi2b-derived peptide): 170000 M⁻¹ s⁻¹
koff Mean (FcγRI): 0.000192 s⁻¹
kon Mean (FcγRI): 1.28e+06 M⁻¹ s⁻¹
